Measured values published in the supplement of paper PMC10567573.

B1: SNAP91 (parent)
chain: FAQPMMRPPFGAAAVPGTQLSPSP
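Further: lentivirally expressed fusions sorted by FACS into six bins by GFP to DsRed ratio, PSI derived from sequencing read proportions per bin multiplied by bin number.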

Variants of: B1
Test: protein stability index of a GFP-peptide fusion (GPS, HEK-293T) (PSI 1-6); higher = more stable
Conditions: c terminus: a fixed tail appended
In the case of FAQPMMRPPFGDAAVPGTQLSPSP, the protein stability index is reported as 3.82. For FAQPMMRPPFGSAAVPGTQLSPSP, the protein stability index was 2.91. In the case of FAQPMMRPPFGWAAVPGTQLSPSP, the protein stability index is reported as 2.77. With FAQPMMRPPFGGAAVPGTQLSPSP the protein stability index was 3.5. Work on FAQPMMRPPFGNAAVPGTQLSPSP yielded a protein stability index of 3.54. In the case of FAQPMMRPPFGFAAVPGTQLSPSP, the protein stability index is reported as 2.83. FAQPMMRPPFGHAAVPGTQLSPSP showed a protein stability index of 2.96. For FAQPMMRPPFGPAAVPGTQLSPSP, the protein stability index was 2.7. For FAQPMMRPPFGKAAVPGTQLSPSP, the protein stability index was 3.16. With FAQPMMRPPFGIAAVPGTQLSPSP the protein stability index was 2.58. FAQPMMRPPFGTAAVPGTQLSPSP showed a protein stability index of 2.91. Variant FAQPMMRPPFGLAAVPGTQLSPSP has a protein stability index of 2.42. In the case of FAQPMMRPPFGEAAVPGTQLSPSP, the protein stability index is reported as 3.39. For FAQPMMRPPFGQAAVPGTQLSPSP, the protein stability index was 3.62. Variant FAQPMMRPPFGMAAVPGTQLSPSP has a protein stability index of 3.03. With FAQPMMRPPFGYAAVPGTQLSPSP the protein stability index was 2.53. FAQPMMRPPFGCAAVPGTQLSPSP showed a protein stability index of 2.46. For FAQPMMRPPFGVAAVPGTQLSPSP, the protein stability index was 2.55. Variant FAQPMMRPPFGRAAVPGTQLSPSP has a protein stability index of 3.33. In the case of FAQPMMRPPFGAAAVCGTQLSPSP, the protein stability index is reported as 2.77. For FAQPMMRPPFGAAAVDGTQLSPSP, the protein stability index was 2.99. For FAQPMMRPPFGAAAVEGTQLSPSP, the protein stability index was 2.38. For FAQPMMRPPFGAAAVAGTQLSPSP, the protein stability index was 3.29. With FAQPMMRPPFGAKAVPGTQLSPSP the protein stability index was 3.13. With FAQPMMRPPFGAYAVPGTQLSPSP the protein stability index was 2.75. In the case of FAQPMMRPPFGALAVPGTQLSPSP, the protein stability index is reported as 2.63. Variant FAQPMMRPPFGACAVPGTQLSPSP has a protein stability index of 2.39. In the case of FAQPMMRPPFGAIAVPGTQLSPSP, the protein stability index is reported as 2.54. Variant FAQPMMRPPFGAGAVPGTQLSPSP has a protein stability index of 3.44. With FAQPMMRPPFGAHAVPGTQLSPSP the protein stability index was 3.13. FAQPMMRPPFGADAVPGTQLSPSP showed a protein stability index of 3.38. With FAQPMMRPPFGASAVPGTQLSPSP the protein stability index was 3.25. In the case of FAQPMMRPPFGAWAVPGTQLSPSP, the protein stability index is reported as 1.62. With FAQPMMRPPFGAFAVPGTQLSPSP the protein stability index was 3.13. With FAQPMMRPPFGAVAVPGTQLSPSP the protein stability index was 2.73. FAQPMMRPPFGAPAVPGTQLSPSP gave a protein stability index of 3.76. FAQPMMRPPFGAEAVPGTQLSPSP showed a protein stability index of 3.24. Work on FAQPMMRPPFGANAVPGTQLSPSP yielded a protein stability index of 3.46. Work on FAQPMMRPPFGAMAVPGTQLSPSP yielded a protein stability index of 2.79. FAQPMMRPPFGATAVPGTQLSPSP gave a protein stability index of 3.36. Variant FAQPMMRPPFGARAVPGTQLSPSP has a protein stability index of 3.65. Work on FAQPMMRPPFGAQAVPGTQLSPSP yielded a protein stability index of 3.32. Variant FAQPMMRPPFYAAAVPGTQLSPSP has a protein stability index of 2.91. FAQPMMRPPFHAAAVPGTQLSPSP showed a protein stability index of 2.91. Variant FAQPMMRPPFVAAAVPGTQLSPSP has a protein stability index of 3.35. In the case of FAQPMMRPPFMAAAVPGTQLSPSP, the protein stability index is reported as 3.29. In the case of FAQPMMRPPFSAAAVPGTQLSPSP, the protein stability index is reported as 4.04. Work on FAQPMMRPPFQAAAVPGTQLSPSP yielded a protein stability index of 4.35. In the case of FAQPMMRPPFFAAAVPGTQLSPSP, the protein stability index is reported as 2.86. Variant FAQPMMRPPFKAAAVPGTQLSPSP has a protein stability index of 3.55. Variant FAQPMMRPPFPAAAVPGTQLSPSP has a protein stability index of 3.98. FAQPMMRPPFTAAAVPGTQLSPSP showed a protein stability index of 3.44. FAQPMMRPPFWAAAVPGTQLSPSP gave a protein stability index of 1.88. In the case of FAQPMMRPPFIAAAVPGTQLSPSP, the protein stability index is reported as 2.73. In the case of FAQPMMRPPFNAAAVPGTQLSPSP, the protein stability index is reported as 3.67. With FAQPMMRPPFRAAAVPGTQLSPSP the protein stability index was 4.01. For FAQPMMRPPFLAAAVPGTQLSPSP, the protein stability index was 3.04. FAQPMMRPPFGAAAQPGTQLSPSP showed a protein stability index of 3.42. Work on FAQPMMRPPFGAAAFPGTQLSPSP yielded a protein stability index of 2.78. In the case of FAQPMMRPPFGAAACPGTQLSPSP, the protein stability index is reported as 3.21. With FAQPMMRPPFGAAANPGTQLSPSP the protein stability index was 3.27. Variant FAQPMMRPPFGAAAMPGTQLSPSP has a protein stability index of 3.01. For FAQPMMRPPFGAAAEPGTQLSPSP, the protein stability index was 2.98. FAQPMMRPPFGAAARPGTQLSPSP showed a protein stability index of 3.31. FAQPMMRPPFGAAAHPGTQLSPSP showed a protein stability index of 3.28. With FAQPMMRPPFGAAAKPGTQLSPSP the protein stability index was 2.92. In the case of FAQPMMRPPFGAAAIPGTQLSPSP, the protein stability index is reported as 2.82. Work on FAQPMMRPPFGAAAWPGTQLSPSP yielded a protein stability index of 2.52. With FAQPMMRPPFGAAASPGTQLSPSP the protein stability index was 3.28. For FAQPMMRPPFGAAAGPGTQLSPSP, the protein stability index was 2.96. FAQPMMRPPFGAAALPGTQLSPSP showed a protein stability index of 3.08. FAQPMMRPPFGAAATPGTQLSPSP showed a protein stability index of 3.5. For FAQPMMRPPFGAAAAPGTQLSPSP, the protein stability index was 3.54. Work on FAQPMMRPPFGAAAYPGTQLSPSP yielded a protein stability index of 2.83. FAQPMMRPPFGAAADPGTQLSPSP showed a protein stability index of 2.73. FAQPMMRPPFGAALVPGTQLSPSP showed a protein stability index of 2.78. For FAQPMMRPPFGAAMVPGTQLSPSP, the protein stability index was 3.03. Work on FAQPMMRPPFGAANVPGTQLSPSP yielded a protein stability index of 3.17. Variant FAQPMMRPPFGAAYVPGTQLSPSP has a protein stability index of 3.04. FAQPMMRPPFGAACVPGTQLSPSP showed a protein stability index of 2.81. FAQPMMRPPFGAAGVPGTQLSPSP gave a protein stability index of 2.8. For FAQPMMRPPFGAATVPGTQLSPSP, the protein stability index was 2.45. In the case of FAQPMMRPPFGAAPVPGTQLSPSP, the protein stability index is reported as 3.08. FAQPMMRPPFGAAEVPGTQLSPSP gave a protein stability index of 3.01. For FAQPMMRPPFGAARVPGTQLSPSP, the protein stability index was 3.31. Work on FAQPMMRPPFGAAIVPGTQLSPSP yielded a protein stability index of 2.82. For FAQPMMRPPFGAAQVPGTQLSPSP, the protein stability index was 3.25. For FAQPMMRPPFGAADVPGTQLSPSP, the protein stability index was 2.79. With FAQPMMRPPFGAASVPGTQLSPSP the protein stability index was 2.87. In the case of FAQPMMRPPFGAAKVPGTQLSPSP, the protein stability index is reported as 3.21. In the case of FAQPMMRPPFGAAVVPGTQLSPSP, the protein stability index is reported as 2.61. For FAQPMMRPPFGAAFVPGTQLSPSP, the protein stability index was 2.65. FAQPMMRPPFGAAWVPGTQLSPSP showed a protein stability index of 1.81. FAQPMMRPPFGAAHVPGTQLSPSP showed a protein stability index of 2.99.
